Source: article PMC5338925, “Human Nup98 regulates the localization and activity of DExH/D-box helicase DHX9” (eLife, 2017)

T1: GST-Nup98^1–863 (human, UniProt P52948-4 1-863)
T1 construct: Nup98, human, residues 1-863; Held on glutathione magnetic agarose beads by its GST; also called GST-Nup98 (bead halo bait); source: purified recombinant protein (E. coli BL21-CodonPlus(DE3), glutathione-Sepharose 4B)
T1 sequence (looked up): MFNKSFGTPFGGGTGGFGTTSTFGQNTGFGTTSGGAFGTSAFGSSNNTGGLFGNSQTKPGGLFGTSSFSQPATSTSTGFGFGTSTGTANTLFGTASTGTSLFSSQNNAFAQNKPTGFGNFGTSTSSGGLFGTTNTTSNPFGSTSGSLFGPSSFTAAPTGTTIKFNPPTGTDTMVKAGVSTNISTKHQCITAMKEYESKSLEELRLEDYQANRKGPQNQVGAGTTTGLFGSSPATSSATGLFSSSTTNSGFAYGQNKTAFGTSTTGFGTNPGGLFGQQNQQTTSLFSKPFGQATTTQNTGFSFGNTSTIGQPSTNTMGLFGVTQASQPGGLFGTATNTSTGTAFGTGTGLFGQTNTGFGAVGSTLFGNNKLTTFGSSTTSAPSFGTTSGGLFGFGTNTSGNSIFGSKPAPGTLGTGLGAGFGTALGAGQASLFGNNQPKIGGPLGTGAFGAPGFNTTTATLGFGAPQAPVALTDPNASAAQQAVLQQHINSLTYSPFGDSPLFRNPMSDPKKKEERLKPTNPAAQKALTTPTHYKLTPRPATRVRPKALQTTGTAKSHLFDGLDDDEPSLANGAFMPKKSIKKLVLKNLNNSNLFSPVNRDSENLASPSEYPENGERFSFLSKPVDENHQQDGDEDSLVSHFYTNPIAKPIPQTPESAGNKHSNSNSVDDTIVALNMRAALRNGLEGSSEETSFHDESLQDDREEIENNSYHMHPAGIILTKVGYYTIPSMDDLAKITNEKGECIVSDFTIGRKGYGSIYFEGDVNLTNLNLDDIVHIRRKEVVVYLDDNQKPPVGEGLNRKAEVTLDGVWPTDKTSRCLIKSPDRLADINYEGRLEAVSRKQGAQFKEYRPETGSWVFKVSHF

B1: DHX9 1–380 tagged with eGFP (domain or fragment, human, UniProt Q08211 1-380, looked up)
chain: MGDVKNFLYAWCGKRKMTPSYEIRAVGNKNRQKFMCEVQVEGYNYTGMGNSTNKKDAQSNAARDFVNYLVRINEIKSEEVPAFGVASPPPLTDTPDTTANAEGDLPTTMGGPLPPHLALKAENNSEVGASGYGVPGPTWDRGANLKDYYSRKEEQEVQATLESEEVDLNAGLHGNWTLENAKARLNQYFQKEKIQGEYKYTQVGPDHNRSFIAEMTIYIKQLGRRIFAREHGSNKKLAAQSCALSLVRQLYHLGVVEAYSGLTKKKEGETVEPYKVNLSQDLEHQLQNIIQELNLEILPPPEDPSVPVALNIGKLAQFEPSQRQNQVGVVPWSPPQSNWNPWTSSNIDEGPLAFATPEQISMDLKNELMYQLEQDHDLQA
notes: also called N-terminal region (residues 1–380); N-terminal domain of DHX9-GFP; source: purified recombinant protein; not shown: eGFP, C-terminal, kept
B2: DHX9 821–1270 tagged with eGFP (domain or fragment, human, UniProt Q08211 821-1270, looked up)
chain: IEPPPLDAVIEAEHTLRELDALDANDELTPLGRILAKLPIEPRFGKMMIMGCIFYVGDAICTIAAATCFPEPFINEGKRLGYIHRNFAGNRFSDHVALLSVFQAWDDARMGGEEAEIRFCEHKRLNMATLRMTWEAKVQLKEILINSGFPEDCLLTQVFTNTGPDNNLDVVISLLAFGVYPNVCYHKEKRKILTTEGRNALIHKSSVNCPFSSQDMKYPSPFFVFGEKIRTRAISAKGMTLVTPLQLLLFASKKVQSDGQIVLVDDWIKLQISHEAAACITGLRAAMEALVVEVTKQPAIISQLDPVNERMLNMIRQISRPSAAGINLMIGSTRYGDGPRPPKMARYDNGSGYRRGGSSYSGGGYGGGYSSGGYGSGGYGGSANSFRAGYGAGVGGGYRGVSRGGFRGNSGGDYRGPSGGYRGSGGFQRGGGRGAYGTGYFGQGRGGGGY
notes: also called C-terminal segment (residues 821–1270); C-terminal domain of DHX9-GFP; source: purified recombinant protein; not shown: eGFP, C-terminal, kept

Legend:
[1] = biological target: GST-DHX9 (human) (UniProt Q08211)
[2] = biological target: T1, GST-Nup98^1–863; assay: bead halo assay; GST-Nup98 1-863 held on glutathione magnetic agarose beads (bait); DHX9 domains with C-terminal eGFP (prey) detected by fluorescence microscopy; PBS-T, 10 min, 4 °C; pre-treated with RNase A, poly I:C RNA or buffer alone; conditions: both partners purified

| Molecule | ATPase activity (ATP hydrolysis rate) of GST-DHX9 with excess RNA (poly I:C) and increasing concentrations of GST-Nup98 [1] | binding result [2] |
| --- | --- | --- |
| GST-Nup98^1–920 (from UniProt P52948-4 1-920) (natural protein) | 5 fold | – |
| B1 | – | binds |
| B2 | – | binds |
